Assay results: US20210206838A1

Columns and labels:
Assay in all cases: cell-based or functional assay
[1] = target: HIV pseudovirus Ce1176_A3 (envelope glycoprotein) (HIV)
[2] = target: envelope glycoprotein of HIV pseudovirus AC10.0.29 (human immunodeficiency virus (HIV))
[3] = target: HIV pseudovirus Du172.17 (envelope glycoprotein) (human immunodeficiency virus (HIV))
[4] = target: HIV pseudovirus 0260.v5.c36 (envelope glycoprotein) (HIV)
[5] = target: HIV pseudovirus 0260.v5.c36 (envelope glycoprotein) (human immunodeficiency virus (HIV))
[6] = target: envelope glycoprotein of HIV pseudovirus 263-8 (human immunodeficiency virus (HIV))
[7] = target: HIV pseudovirus SC05.8C11.2344 (envelope glycoprotein) (HIV)
[8] = target: envelope glycoprotein of HIV pseudovirus Ce1176_A3 (human immunodeficiency virus (HIV))
[9] = target: HIV pseudovirus RHPA4259.7 (envelope glycoprotein) (HIV)
[10] = target: envelope glycoprotein of HIV pseudovirus 6952.v1.c20 (human immunodeficiency virus (HIV))
[11] = target: HIV pseudovirus BB1012-11.TC21 (envelope glycoprotein) (human immunodeficiency virus (HIV))
[12] = target: envelope glycoprotein of HIV pseudovirus X1193_c1 (human immunodeficiency virus (HIV))
[13] = target: HIV pseudovirus CNE52 (envelope glycoprotein) (human immunodeficiency virus (HIV))
[14] = target: HIV pseudovirus RHPA4259.7 (envelope glycoprotein) (human immunodeficiency virus (HIV))
[15] = target: HIV pseudovirus Du172.17 (envelope glycoprotein) (HIV)
[16] = target: HIV pseudovirus CNE52 (envelope glycoprotein) (HIV)
[17] = target: HIV pseudovirus SC422661.8 (envelope glycoprotein) (human immunodeficiency virus (HIV))
[18] = target: envelope glycoprotein of HIV pseudovirus SC05.8C11.2344 (human immunodeficiency virus (HIV))

Question: Which results are given for Control (antibody)?
Answer: neutralization IC50 [1]: 0.02 µg/mL; neutralization IC80 [1]: 0.076 µg/mL; IC50 [2]: 0.033 µg/mL; IC80 [2]: 0.117 µg/mL; neutralization IC50 [3]: 0.013 µg/mL; neutralization IC80 [3]: 0.198 µg/mL; neutralization IC50 [4]: 0.051 µg/mL; neutralization IC80 [4]: 0.143 µg/mL; neutralization IC50 [5]: 0.027 µg/mL; neutralization IC80 [5]: 0.105 µg/mL; IC50 [6]: 1.12 µg/mL; IC80 [6]: 9.37 µg/mL; neutralization IC50 [7]: 0.019 µg/mL; neutralization IC80 [7]: 0.071 µg/mL; IC50 [8]: 0.018 µg/mL; IC80 [8]: 0.049 µg/mL; neutralization IC50 [9]: 0.018 µg/mL; neutralization IC80 [9]: 0.047 µg/mL; IC50 [10]: 0.053 µg/mL; IC80 [10]: 0.373 µg/mL; neutralization IC50 [11]: 0.005 µg/mL; neutralization IC80 [11]: 0.021 µg/mL; IC50 [12]: 0.019 µg/mL; IC80 [12]: 0.065 µg/mL; neutralization IC50 [13]: 0.904 µg/mL; neutralization IC80 [13]: 16.8 µg/mL; neutralization IC50 [14]: 0.011 µg/mL; neutralization IC80 [14]: 0.033 µg/mL; neutralization IC50 [15]: 0.051 µg/mL; neutralization IC80 [15]: 0.672 µg/mL; neutralization IC50 [16]: 2.92 µg/mL; neutralization IC80 [16]: 17.8 µg/mL; neutralization IC50 [17]: 0.028 µg/mL; neutralization IC80 [17]: 0.126 µg/mL; IC50 [18]: 0.018 µg/mL; IC80 [18]: 0.084 µg/mL
